Assay results published in PMC3157396, “Molecular Basis for the Recognition of Adenomatous Polyposis Coli by the Discs Large 1 Protein” (PLoS ONE, 2011).
Positions count from the first letter of the chain named. Names and notes keep the numbering of the source.

B1: PDZ2 domain of human Discs Large 1 (DLG1), residues 315–410 (domain or fragment, UniProt Q12959 315-410, looked up)
chain: EKIMEIKLIKGPKGLGFSIAGGVGNQHIPGDNSIYVTKIIEGGAAHKDGKLQIGDKLLAVNNVCLEEVTHEEAVTALKNTSDFVYLKVAKPTSMYM
notes: human Discs Large 1/Synapse Associated Protein 97 (DLG1), PDZ2 domain, residues 315-410; cloned into a pET28a-derived vector; also called WT PDZ2; second PDZ domain of DLG1; source: E. coli BL21 (DE3), purified (Ni2+-NTA, Superdex 200 gel filtration)
B2: GST-tagged C-terminal 11 residues of human Adenomatous Polyposis Coli (APC), residues 2833–2843 (peptide)
chain: RHSGSYLVTSV
notes: human Adenomatous Polyposis Coli (APC), C-terminal 11 residues, 2833-2843 of the 2,843-residue protein; cloned into pGEX4T1; also called GST-APC-C11; APC-C11; not shown: GST, N-terminal, kept
B3: PDZ2 domain of human DLG1 with the point mutation Q340P (domain or fragment, UniProt Q12959 315-410, looked up)
chain: B1 chain with Q26P
notes: human DLG1 PDZ2 domain, residues 315-410, Q340P; also called PDZ2 Q340P; PDZ2-Q340P; source: E. coli BL21 (DE3), purified

Columns and labels:
[1] = biological target: B2; test: ITC; ITC200, 25°C, 50 mM HEPES pH 7.5, 100 mM NaCl; PDZ domain (400 µM) injected 20 times in 2 µl aliquots into 40 µM GST-tagged APC-C11 or APC-C4; single site binding model; conditions: both partners purified
[2] = biological target: B3; test: as above; conditions: both partners purified

Binder | dH [1] [kcal/mol] | stoichiometry N [1] | Kd [2] [µM]
B1 | -7.09 ± 0.19 | 0.916 ± 0.018 | –
B2 | – | – | 9.8 ± 1.11
B3 | -6.76 ± 0.27 | 1.04 ± 0.03 | –
